Experimental data from the supplement of paper PMC11316812.
± gives the standard deviation of the averaged measurements.

Tests used:
MCF7 = assay: percentage of EdU-negative (G0-arrested) nuclei per well, 72 h; higher = more G0 arrest; conditions: reference: sequence is the full UniProt precursor, the tested protein was the secreted form or ectodomain
hTERT-HMEC = assay: as above; conditions: reference: sequence is the full UniProt precursor, the tested protein was the secreted form or ectodomain
[1] = protein concentration 0.00669 µM
[2] = protein concentration 0.0669 µM
[3] = protein concentration 0.0225 µM
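Further: secreted proteins added to cultured cells, EdU pulse at the end, nuclei found by Hoechst imaging, EdU status from nuclear versus surrounding ring intensity ratio, PBS as neutral control.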

Sequence	percentage of EdU-negative (MCF7; [1])	percentage of EdU-negative (MCF7; [2])	percentage of EdU-negative (hTERT-HMEC; [1])	percentage of EdU-negative (hTERT-HMEC; [2])	percentage of EdU-negative (MCF7; [3])	percentage of EdU-negative (MCF7; protein concentration 0.225 µM)	percentage of EdU-negative (hTERT-HMEC; [3])	percentage of EdU-negative (hTERT-HMEC; protein concentration 0.225 µM)
MAQHGAMGAFRALCGLALLCALSLGQRPTGGPGCGPGRLLLGTGTDARCCRVHTTRCCRDYPGEECCSEWDCMCVQPEFHCGDPCCTTCRHHPCPPGQGVQSQGKFSFGFQCIDCASGTFSGGHEGHCKPWTDCTQFGFLTVFPGNKTHNAVCVPGSPPAEPLGWLTVVLLAVAACVLLLTSAQLGLHIWQLRSQCMWPRETQLLLEVPPSTEDARSCQFPEEERGERSAEEKGRLGDLWV [Q9Y5U5]	24.9 ± 1.6%	23.9 ± 0.75%	5.37 ± 0.9%	6.01 ± 1.5%				
MAQHHLWILLLCLQTWPEAAGKDSEIFTVNGILGESVTFPVNIQEPRQVKIIAWTSKTSVAYVTPGDSETAPVVTVTHRNYYERIHALGPNYNLVISDLRMEDAGDYKADINTQADPYTTTKRYNLQIYRRLGKPKITQSLMASVNSTCNVTLTCSVEKEEKNVTYNWSPLGEEGNVLQIFQTPEDQELTYTCTAQNPVSNNSDSISARQLCADIAMGFRTHHTGLLSVLAMFFLLVLILSSVFLFRLFKRRQGRIFPEGSCLNTFTKNPYAASKKTIYTYIMASRNTQPAESRIYDEILQSKVLPSKEEPVNTVYSEVQFADKMGKASTQDSKPPGTSSYEIVI [Q9UIB8]					27.3 ± 3%	26.8 ± 1.5%	4.54 ± 0.35%	5.92 ± 0.51%
MAQLCGLRRSRAFLALLGSLLLSGVLAADRERSIHDFCLVSKVVGRCRASMPRWWYNVTDGSCQLFVYGGCDGNSNNYLTKEECLKKCATVTENATGDLATSRNAADSSVPSAPRRQDSEDHSSDMFNYEEYCTANAVTGPCRASFPRWYFDVERNSCNNFIYGGCRGNKNSYRSEEACMLRCFRQQENPPLPLGSKVVVLAGLFVMVLILFLGASMVYLIRVARRNQERALRTVWSSGDDKEQLVKNTYVL					24.2 ± 2%	25.4 ± 0.69%	4.91 ± 0.26%	5.37 ± 0.98%
MAQLWLSCFLLPALVVSVAANVAPKFLANMTSVILPEDLPVGAQAFWLVAEDQDNDPLTYGMSGPNAYFFAVTPKTGEVKLASALDYETLYTFKVTISVSDPYIQVQREMLVIVEDRNDNAPVFQNTAFSTSINETLPVGSVVFSVLAVDKDMGSAGMVVYSIEKVIPSTGDSEHLFRILANGSIVLNGSLSYNNKSAFYQLELKACDLGGMYHNTFTIQCSLPVFLSISVVDQPDLDPQFVREFYSASVAEDAAKGTSVLTVEAVDGDKGINDPVIYSISYSTRPGWFDIGADGVIRVNGSLDREQLLEADEEVQLQVTATETHLNIYGQEAKVSIWVTVRVMDVNDHKPEFYNCSLPACTFTPEEAQVNFTGYVDEHASPRIPIDDLTMVVYDPDKGSNGTFLLSLGGPDAEAFSVSPERAVGSASVQVLVRVSALVDYERQTAMAVQVVATDSVSQNFSVAMVTIHLRDINDHRPTFPQSLYVLTVPEHSATGSVVTDSIHATDPDTGAWGQITYSLLPGNGADLFQVDPVSGTVTVRNGELLDRESQAVYYLTLQATDGGNLSSSTTLQIHLLDINDNAPVVSGSYNIFVQEEEGNVSVTIQAHDNDEPGTNNSRLLFNLLPGPYSHNFSLDPDTGLLRNLGPLDREAIDPALEGRIVLTVLVSDCGEPVLGTKVNVTITVEDINDNLPIFNQSSYNFTVKEEDPGVLVGVVKAWDADQTEANNRISFSLSGSGANYFMIRGLVLGAGWAEGYLRLPPDVSLDYETQPVFNLTVSAENPDPQGGETIVDVCVNVKDVNDNPPTLDVASLRGIRVAENGSQHGQVAVVVASDVDTSAQLEIQLVNILCTKAGVDVGSLCWGWFSVAANGSVYINQSKAIDYEACDLVTLVVRACDLATDPGFQAYSNNGSLLITIEDVNDNAPYFLPENKTFVIIPELVLPNREVASVRARDDDSGNNGVILFSILRVDFISKDGATIPFQGVFSIFTSSEADVFAGSIQPVTSLDSTLQGTYQVTVQARDRPSLGPFLEATTTLNLFTVDQSYRSRLQFSTPKEEVGANRQAINAALTQATRTTVYIVDIQDIDSAARARPHSYLDAYFVFPNGSALTLDELSVMIRNDQDSLTQLLQLGLVVLGSQESQESDLSKQLISVIIGLGVALLLVLVIMTMAFVCVRKSYNRKLQAMKAAKEARKTAAGVMPSAPAIPGTNMYNTERANPMLNLPNKDLGLEYLSPSNDLDSVSVNSLDDNSVDVDKNSQEIKEHRPPHTPPEPDPEPLSVVLLGRQAGASGQLEGPSYTNAGLDTTDL [Q9BYE9]					26.56 ± 0.19%	26.4 ± 2.1%	4.86 ± 0.083%	7.42 ± 0.98%
MAQRCVCVLALVAMLLLVFPTVSRSMGPRSGEHQRASRIPSQFSKEERVAMKEALKGAIQIPTVTFSSEKSNTTALAEFGKYIHKVFPTVVSTSFIQHEVVEEYSHLFTIQGSDPSLQPYLLMAHFDVVPAPEEGWEVPPFSGLERDGIIYGRGTLDDKNSVMALLQALELLLIRKYIPRRSFFISLGHDEESSGTGAQRISALLQSRGVQLAFIVDEGGFILDDFIPNFKKPIALIAVSEKGSMNLMLQVNMTSGHSSAPPKETSIGILAAAVSRLEQTPMPIIFGSGTVVTVLQQLANEFPFPVNIILSNPWLFEPLISRFMERNPLTNAIIRTTTALTIFKAGVKFNVIPPVAQATVNFRIHPGQTVQEVLELTKNIVADNRVQFHVLSAFDPLPVSPSDDKALGYQLLRQTVQSVFPEVNITAPVTSIGNTDSRFFTNLTTGIYRFYPIYIQPEDFKRIHGVNEKISVQAYETQVKFIFELIQNADTDQEPVSHLHKL [Q6GTS8]					28 ± 2%	24.4 ± 2.8%	4.69 ± 0.48%	5.33 ± 0.14%
MAQRMTTQLLLLLVWVAVVGEAQTRIAWARTELLNVCMNAKHHKEKPGPEDKLHEQCRPWRKNACCSTNTSQEAHKDVSYLYRFNWNHCGEMAPACKRHFIQDTCLYECSPNLGPWIQQVDQSWRKERVLNVPLCKEDCEQWWEDCRTSYTCKSNWHKGWNWTSGFNKCAVGAACQPFHFYFPTPTVLCNEIWTHSYKVSNYSRGSGRCIQMWFDPAQGNPNEEVARFYAAAMSGAGPWAAWPFLLSLALMLLWLLS					25.4 ± 1.9%	24.4 ± 0.58%	15.7 ± 0.18%	10.3 ± 8.7%
